Sequences and labels used below:
B1: TPR t1 (parent)
chain: GACCAAUCUGCCCUCAGAGCUCGAGAACAUCUUCGGAUGCAGAGGAGGCAGGCUUCGGUGGCGCGAUAGCGCCAACGUCCUCAACCUCCAAUGCAUCCCACCACAUGAUGAUGCCUGAAGAGCCUUGGUUUUUUG

This note sets out measurements from the RNAGym collection of RNA variant scans (doi:10.1073/pnas.2313332121).

Variants of B1 are the subject of this data set. In words: polymerase ribozyme fitness, log enrichment relative to wild type (log ratio); higher = more active; in vitro selection for triplet polymerase activity. The essentials: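 Fitness compares each genotype's enrichment to that of the wild type on a logarithmic scale, averaging replicates with inverse-variance weights. The logarithm is base 2. Enrichment came from Illumina sequencing of input and output libraries after one triplicate round of in vitro selection, which included frozen incubation at −7 °C, of PCR-built, transcribed mutant libraries of each subunit of a heterodimeric triplet polymerase ribozyme. Only genotypes with ≥10 input reads and ≥1 read per output were kept.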
Take GACCAAUCUGCCCUCAGAGCUCGAGAAUAUCUUCGGAUGCAGAGGAGGCAGGUUUCGGUGGCGCGAUAGCGCCAACGUCCUCAACCUCCAACGCAUCCCACCACAAGAUGAUGCCUGAAGAGCCUUGGUUUUAUG: the “polymerase ribozyme fitness (log ratio)” value is -3.09.

As to GACCAAUUUGCCCUCAGAGCUCGAGUACAUCUUCGGAUGCAGAGGAGGGAGGCUUCGGUGGCGCGAUAGCGCCAACGUUCUCAACCUCCAAUACAUCCCACCACAUGAUGAUGCCUGAAGAGCCUUGGUUUUUUG, the “polymerase ribozyme fitness (log ratio)” value was -4.36. Under GACCAAUCUGCCCUCAGAGCUCGAGAACAUCUUCGGAUGCAGAGGAGGCAGGCUUAGGUGGCGCGAUAGCUCCAACGGCCUCAACCUCCAAUGCAUCCCACCACGUGAUGAUGCCUGAUGAACCUUGGUUUUUUG stands -5.65; under GACCAAUCUGCCCUCAGAGCUCGAGAACAUCUUCGGAUGCAGACGUGGCAGGCUUCGGUGGCGCGAUAGCGCCAACGUCCUCAACUUCCAAUGCAUCCCACCACAUGAUGAUGCCUGAAGAGCCUUGGUUUUUUG, -2.43. As for GACCAAUCUGCCCUCAGAGCUCGAGAACAUCUUCGGAUGCAGAGGAGGCAGGAAUUGGUGGCGCGAUAGCGCCAACGUCCUCAACCUCCAAUGCAUCCCAUCACAUGAUGAUGCCUGAAGAGCCUUGGUUUUUUG, the “polymerase ribozyme fitness (log ratio)” value came to 0.471. Next, GACCAGUCUGCCCUCAGAGCUCGAGAACAUCUUCGGAUGCAGAGGAGGCAGGCUUCGGUGGCGCGAUAGCGCCAACGUCCUCAACCUUCAAUGCAUCCCACCACAUGAUGAUUCCUGAAGAGCCUUGGUUUUUUG: -2.37; GACCAAUCUGCACUCAGAGGUCGAGAACAUCUUCGGAUGCAGAGGAGGCAGGCUUCGGUGGCGCGAUAGCGCCAACGUCCUCGAUCUCCAAUGCGUCCCACCACAUGAUGAUGCCUGAAGAGCCUUGGUUUUUUG: -5.21. In the case of GACCAAUCUGCCCUCAGAGCUCGAGAACAUCUUCGGAUGCAGAGGAGGCAGGCUUCGUUGGCGCGAUAGCGCCAACGUCCUUAACCUCCAAUGUAUCCCACCACAUGAUGAUGACUGAAGAGCCUUGGUUUUUUG, the “polymerase ribozyme fitness (log ratio)” value was -2.23.

On to GACCAAUCUGCCCUCAGAGCUCGAGAACAUCUUCGGAUGCUGAGGUGGCAGGCUUCGGUGGCGCGAUAGCGCCAACGUCCUCAACCUCCAAUGCAUCCCACCACAUGAUGAUGCCUGAAGAGCCUUGGUUUUUUG, for which the “polymerase ribozyme fitness (log ratio)” value is -2.26. Take GACCAAUCUGCCCUCAGAGCUCGAGAACGUCUUCGAAUGCAGAGGAGGCAGGCUUCGGUGGCGCGAUAACUCCAACGUCCUCAACCUCCAAUGCAUCCCACCAUAUGAUGAUGCCUGAAGAGCCUUGGUUUUUUG: the “polymerase ribozyme fitness (log ratio)” value was -6.16.

In the case of GACCAAUAUGCCCUCAGAGCUCGAGAACAUCUUCGGAUGCAGAGGAGGCAGGCUUCGGUGGCGCGAUAGCGCCAACGUCCUCAACCUCCAAUGCAUCCCACCACAUGAUGAUGCGUGAAGAGCCUUGGUUUUUUG, the “polymerase ribozyme fitness (log ratio)” value is -0.0701.

Turning to GACCAAUCUGCCCUCUGAGCUCGAGAACAUCUUCGGAUGCAGAGGAGGCAGGCUUCGGUGGCGCGAUAGCGCCAACGUCCUCAACCUCCAAUGCAUCCCACCACAUGAUGAUGCCUGAAGAGCUUUGGUUUUUUG, the “polymerase ribozyme fitness (log ratio)” value is 0.484. As for GACCAAUCUGCCCUCAGAGCUCGAGAACAUCUUCGGAUGCAGAGUAGGCAGGCUUCGGUGGUGCGAUAGCGCCAACGUCCUCAACCUCCAAUGCAUCCCACCACAUGAUGAGGCCUGAAGAGCCUAGAUAUUUUG, the “polymerase ribozyme fitness (log ratio)” value is -3.11. Next, GACCAAUCUGCCCUCAGAGCUCGAGAACAUCUUCGGAUGCAGAGGAGGCAGGCUUCGGUGGCGCGAUAGCGCAAACGUCCUCAACCUCCAAUGCAUCCCACCAAAUGAUGAUGCCGGAAGAGCAUUGGUUUUUUG: -1.19; GACCAAUCUGCCCUCAGAGCUCGAGAUCAUCUUCGGAUGCAGAGGAGGCAGGCUUCGGUUGCGCGAUAGCGCCAACGUCCUCAACCUCCAAUGCAUCCCACCACAUGAUGAUGCCUGAAGAGCCUUGGUUUUUUG: -3.37; GACCAAUCUGCCCUCAGAGCUCGAGAACAUCUUCGUAUGCAGAGGAGGCAGGCUUCGGUGGCGCGAUAGCGCCAACGUCCUCAACCUGCAUUGCAUCCCACCACAUGAUGAUGCCUGAAGAGCCUUGGUUUUUUG: -6.86.

GACCAAUCUGCCCUCAGAGCUCGAGAACAUCUUCGGAUGCAGAGGAGGCAGGAUUCGGUGGCUCGAUAGCGCCAACGUCCGCUACCUCCAAUGCAUCCCACCACAUGAUGAUGCCUGAACAGCCUUGGUUUUUUG: the “polymerase ribozyme fitness (log ratio)” value was -3.85. For GACCAAUCUGACCUCAGAGCUCGAGAACAUCUUCGGAUGCAGAGGAGGCAGGCUUCGGUGGCGCGAUAGAGCCAACGUCCUCAACCUCCAAUGCAUCCCACCACAUGAUGAUGCCUGAAGAGCCUUGGUUUUUUG, the “polymerase ribozyme fitness (log ratio)” value is -2.06. As for GACCAAUCGGACCUCAGAGCUCGAGAACAUCUUCGGAUGCAGAGGAGGCAGGCUUCGGUGGCGCGAUAGAGCCAACGUCCUCAACCACCAAUGCAUCCCACCACAUGAUGAUGCCUGAAGAGCCUUGGUUUUUUG, the “polymerase ribozyme fitness (log ratio)” value is -2.04.

In the case of GACCAAUCUGCCCUCAGAGCUCGAGAACAUCUUCGUAUGCAGAGGAGGCAGGCUUCGGUGGCGCGAUAGCGCCAACGUCAACAACCUCCAAUGCAUCCCACCACAUGAUGAUGCCUGAAGUGCCUUGGUCUUUUG, the “polymerase ribozyme fitness (log ratio)” value is -0.239. For GACCAUUCUGCCCUCAGAGCUCGAGGACAUCUUCGGAUGCAGAGGAGGCAGACUUCGGUGGCGCGAUAGCUCCAACGUCCUCAACCUCCAAUGCAUCCCACCACAUGAUGAUGCCUGAAGAGCCUUGGUUUUUUG, the “polymerase ribozyme fitness (log ratio)” value is -3.21.
